# Experimental data taken from paper PMC2241861.
# T1: TWINKLE wt (lacks mitochondrial targeting sequence 1-42) (human, UniProt Q96RR1 43-684)
# T1 sequence: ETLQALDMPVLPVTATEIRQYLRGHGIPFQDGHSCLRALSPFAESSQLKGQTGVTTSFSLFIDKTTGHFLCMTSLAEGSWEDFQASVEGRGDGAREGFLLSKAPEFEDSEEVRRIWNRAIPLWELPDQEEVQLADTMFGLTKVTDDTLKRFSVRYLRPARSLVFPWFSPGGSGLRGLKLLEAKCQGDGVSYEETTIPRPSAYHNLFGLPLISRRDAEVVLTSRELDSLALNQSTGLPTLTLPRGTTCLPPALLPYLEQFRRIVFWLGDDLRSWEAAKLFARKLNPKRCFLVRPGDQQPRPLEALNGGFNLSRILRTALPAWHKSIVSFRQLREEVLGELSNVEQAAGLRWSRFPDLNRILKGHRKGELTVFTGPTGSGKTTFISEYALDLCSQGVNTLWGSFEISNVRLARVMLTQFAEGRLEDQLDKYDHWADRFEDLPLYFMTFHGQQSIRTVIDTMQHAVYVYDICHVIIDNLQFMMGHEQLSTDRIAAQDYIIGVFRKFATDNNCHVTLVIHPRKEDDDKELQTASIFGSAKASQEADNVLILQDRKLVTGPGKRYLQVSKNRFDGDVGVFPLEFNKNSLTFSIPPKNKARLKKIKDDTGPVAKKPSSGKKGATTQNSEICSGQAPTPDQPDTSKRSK
# T2: TWINKLE Δ1-121 (human, UniProt Q96RR1 122-684, del1-121)
# T2 sequence: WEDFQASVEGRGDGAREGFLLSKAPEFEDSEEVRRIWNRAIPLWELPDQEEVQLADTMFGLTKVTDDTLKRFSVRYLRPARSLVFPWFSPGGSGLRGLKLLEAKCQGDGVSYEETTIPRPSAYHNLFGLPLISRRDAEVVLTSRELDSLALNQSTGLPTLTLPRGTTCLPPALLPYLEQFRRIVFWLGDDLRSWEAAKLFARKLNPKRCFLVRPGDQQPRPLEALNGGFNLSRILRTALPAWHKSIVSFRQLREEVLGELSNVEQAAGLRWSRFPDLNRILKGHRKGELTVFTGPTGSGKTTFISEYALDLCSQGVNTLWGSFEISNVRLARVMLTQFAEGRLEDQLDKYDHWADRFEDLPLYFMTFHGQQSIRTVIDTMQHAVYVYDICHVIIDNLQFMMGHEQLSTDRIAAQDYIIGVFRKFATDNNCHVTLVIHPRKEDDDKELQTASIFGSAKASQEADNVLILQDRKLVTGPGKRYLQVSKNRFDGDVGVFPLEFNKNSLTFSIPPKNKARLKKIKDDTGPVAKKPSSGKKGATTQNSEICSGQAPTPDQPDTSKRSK
# T3: TWINKLE Δ372-684 (human, UniProt Q96RR1 43-371, del372-684)
# T3 sequence: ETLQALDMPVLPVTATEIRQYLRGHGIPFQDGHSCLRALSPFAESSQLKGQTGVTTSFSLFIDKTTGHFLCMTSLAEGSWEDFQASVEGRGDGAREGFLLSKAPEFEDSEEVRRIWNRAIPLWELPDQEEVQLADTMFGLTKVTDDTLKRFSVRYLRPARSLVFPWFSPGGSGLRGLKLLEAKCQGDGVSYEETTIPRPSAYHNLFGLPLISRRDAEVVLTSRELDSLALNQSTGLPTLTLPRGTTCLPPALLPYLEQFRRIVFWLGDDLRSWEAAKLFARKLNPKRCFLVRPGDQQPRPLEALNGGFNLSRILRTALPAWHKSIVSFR
# T4: TWINKY (human, UniProt Q96RR1-2 43-582, del579-684)
# T4 sequence: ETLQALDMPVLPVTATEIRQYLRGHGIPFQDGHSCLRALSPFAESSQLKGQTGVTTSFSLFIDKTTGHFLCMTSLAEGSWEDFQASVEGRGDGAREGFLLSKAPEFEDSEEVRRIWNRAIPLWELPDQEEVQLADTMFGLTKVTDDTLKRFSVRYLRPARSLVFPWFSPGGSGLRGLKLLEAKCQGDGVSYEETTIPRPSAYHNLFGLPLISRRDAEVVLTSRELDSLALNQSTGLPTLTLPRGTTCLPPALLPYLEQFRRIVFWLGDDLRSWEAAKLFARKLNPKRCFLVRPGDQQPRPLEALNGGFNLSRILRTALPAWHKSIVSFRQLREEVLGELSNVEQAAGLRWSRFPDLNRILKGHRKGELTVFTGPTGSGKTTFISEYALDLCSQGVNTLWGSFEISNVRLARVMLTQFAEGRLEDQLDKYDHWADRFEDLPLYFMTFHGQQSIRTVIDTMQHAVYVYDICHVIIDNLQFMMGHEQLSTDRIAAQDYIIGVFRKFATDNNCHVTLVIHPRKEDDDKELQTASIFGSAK
# B1: ds15 (dsDNA)
# DNA 1: CTCTAGACTCGACCG
# DNA 2: CGGTCGAGTCTAGAG
# B2: ds30 (dsDNA)
# DNA 1: TGGCACGACAGGTTTCCCGACTGGAAAGCG
# DNA 2: CGCTTTCCAGTCGGGAAACCTGTCGTGCCA
# B3: ds45 (dsDNA)
# DNA 1: TGGCACGACAGGTTTCCCGACTGGAAAGCGGGCAGTCAGCTCTAG
# DNA 2: CTAGAGCTGACTGCCCGCTTTCCAGTCGGGAAACCTGTCGTGCCA
# How the values were obtained:
# Test in all cases: EMSA
# [1] = target: T1, TWINKLE wt (lacks mitochondrial …)
# [2] = target: T1, TWINKLE wt (lacks mitochondrial …); remark: listed apart in the source
# TWINKLE Δ1-121 = target: T2, TWINKLE Δ1-121
# TWINKLE Δ372-684 = target: T3, TWINKLE Δ372-684
# TWINKY = target: T4, TWINKY
Binder,binding result [1],Kd [2],binding result (TWINKLE Δ1-121),binding result (TWINKLE Δ372-684),binding result (TWINKY)
B1,binds,,,,
B2,,~5 nM,binds,no binding,no binding
TTTTTTTTTTTTTTTTTTTTTTTTTTTTTTTTTTTTTTTTTTTTT (ssDNA) [ss45 poly-dT],binds,,,,
TTTTTTTTTTTTTTT (ssDNA) [ss15 poly-dT],no binding,,,,
B3,binds,,,,
TTTTTTTTTTTTTTTTTTTTTTTTTTTTTT (ssDNA) [ss30 poly-dT],,~5 nM,,no binding,no binding
